The target of assay [1] is T1, CD80 (B7 family protein, on transfected 293T cells) (Homo sapiens (Human), UniProt P33681 35-288).
T1 sequence: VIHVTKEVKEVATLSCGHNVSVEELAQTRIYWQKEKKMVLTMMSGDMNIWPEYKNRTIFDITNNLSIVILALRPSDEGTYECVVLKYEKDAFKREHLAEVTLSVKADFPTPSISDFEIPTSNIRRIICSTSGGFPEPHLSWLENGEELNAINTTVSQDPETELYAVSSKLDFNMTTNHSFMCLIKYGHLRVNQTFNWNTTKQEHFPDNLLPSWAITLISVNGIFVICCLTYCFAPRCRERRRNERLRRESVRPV
In words: flow cytometry on transfected 293T cells.

For assay [2], the target named is T2, CD86 (B7 family protein, on transfected 293T cells) (Homo sapiens (Human), UniProt P42081 24-329).
T2 sequence: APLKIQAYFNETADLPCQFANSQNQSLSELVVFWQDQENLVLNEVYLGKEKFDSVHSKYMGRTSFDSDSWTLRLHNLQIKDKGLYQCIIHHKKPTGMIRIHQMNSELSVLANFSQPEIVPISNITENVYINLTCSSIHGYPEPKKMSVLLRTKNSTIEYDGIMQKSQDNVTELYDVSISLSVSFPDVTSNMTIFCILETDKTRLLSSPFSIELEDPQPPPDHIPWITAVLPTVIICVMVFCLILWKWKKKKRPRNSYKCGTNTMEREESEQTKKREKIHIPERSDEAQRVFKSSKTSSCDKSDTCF
Briefly: flow cytometry on transfected 293T cells.

Assay [3] concerns the target T3, B7RP-1 (B7 family protein, on transfected 293T cells) (Homo sapiens (Human), UniProt O75144 19-302).
T3 sequence: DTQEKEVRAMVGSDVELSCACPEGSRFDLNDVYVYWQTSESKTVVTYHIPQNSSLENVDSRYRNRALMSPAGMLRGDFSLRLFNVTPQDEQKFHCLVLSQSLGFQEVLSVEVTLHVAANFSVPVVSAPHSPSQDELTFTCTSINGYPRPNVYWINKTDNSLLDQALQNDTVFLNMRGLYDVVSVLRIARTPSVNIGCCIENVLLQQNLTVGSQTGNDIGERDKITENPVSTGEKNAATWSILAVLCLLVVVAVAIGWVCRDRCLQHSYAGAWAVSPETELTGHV
Briefly: flow cytometry on transfected 293T cells.

The target in assay [4] is B7-H1 (B7 family protein, on transfected 293T cells) (Homo sapiens (Human), UniProt Q9NZQ7 19-290). In words: flow cytometry on transfected 293T cells.
B7-H1 (B7 family protein, on transfected 293T cells), sequence (Q9NZQ7 19-290 limits assumed): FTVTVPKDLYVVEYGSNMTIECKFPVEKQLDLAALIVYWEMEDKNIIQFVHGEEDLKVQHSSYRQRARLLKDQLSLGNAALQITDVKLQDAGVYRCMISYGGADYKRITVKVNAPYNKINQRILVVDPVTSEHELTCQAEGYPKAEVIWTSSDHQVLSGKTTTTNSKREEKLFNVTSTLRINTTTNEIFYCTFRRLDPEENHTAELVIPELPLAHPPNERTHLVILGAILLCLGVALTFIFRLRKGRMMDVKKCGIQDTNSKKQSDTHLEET
In assay [5] the target is T4, B7-H4 (B7 family protein, on transfected 293T cells) (Homo sapiens (Human), UniProt Q7Z7D3 25-282).
T4 sequence: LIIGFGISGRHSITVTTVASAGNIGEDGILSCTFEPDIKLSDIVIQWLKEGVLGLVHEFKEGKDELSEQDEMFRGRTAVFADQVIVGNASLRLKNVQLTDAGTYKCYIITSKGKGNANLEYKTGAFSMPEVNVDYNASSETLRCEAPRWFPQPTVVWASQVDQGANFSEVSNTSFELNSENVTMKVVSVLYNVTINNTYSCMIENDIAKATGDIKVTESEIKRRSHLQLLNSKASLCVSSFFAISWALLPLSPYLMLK
In words: flow cytometry on transfected 293T cells.

For assay [6], the target named is T5, extracellular domain polypeptide of a recombinant B7-H3 variant 2 antigen (R&D Systems, Inc., #2318-B3-050/CF) (human, UniProt Q5ZPR3 29-466).
T5 construct: Bought recombinant protein; also called recombinant B7-H3 antigen; B7-H3 antigen
T5 sequence: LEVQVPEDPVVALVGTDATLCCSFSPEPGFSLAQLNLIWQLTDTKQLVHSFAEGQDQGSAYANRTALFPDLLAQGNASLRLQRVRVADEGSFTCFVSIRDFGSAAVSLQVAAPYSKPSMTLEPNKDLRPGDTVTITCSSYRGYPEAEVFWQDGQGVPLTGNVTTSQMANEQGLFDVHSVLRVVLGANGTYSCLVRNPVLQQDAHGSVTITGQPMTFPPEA
In words: SPR, antibody captured on immobilized anti-mouse IgG, B7-H3 variant 2 extracellular domain as analyte; M30 mouse antibody, captured on anti-mouse IgG. The protocol:
The affinity between the M30 antibody or the cM30 antibody and the B7-H3 antigen was measured by a surface plasmon resonance (SPR) device (GE Healthcare Corporation). According to a common procedure, an anti-mouse IgG or an anti-human IgG antibody was immobilized on a sensor chip, and then, the M30 antibody sample or the cM30 antibody was bound thereto. Thereafter, an extracellular domain polypeptide of a recombinant B7-H3 variant 2 antigen (manufactured by R&D Systems, Inc., #2318-B3-050/CF) was added thereto at different concentrations, and the amount of the antigen bound to the antibody in a running buffer (phosphate buffer, 0.05% SP20) was measured over time. The measured amount was analyzed with a dedicated software (BIAevaluation Version 4.1, GE Healthcare Corporation) and a dissociation constant was calculated.

The target in assay [7] is T6, B7-H3 IgV1 (B7-H3 partial protein, on transfected NIH-3T3 cells) (human, UniProt Q5ZPR3 27-534).
T6 construct: expressed on cells from pFLAG-myc-CMV-19-DEST; leader or tag from the vector not described
T6 sequence: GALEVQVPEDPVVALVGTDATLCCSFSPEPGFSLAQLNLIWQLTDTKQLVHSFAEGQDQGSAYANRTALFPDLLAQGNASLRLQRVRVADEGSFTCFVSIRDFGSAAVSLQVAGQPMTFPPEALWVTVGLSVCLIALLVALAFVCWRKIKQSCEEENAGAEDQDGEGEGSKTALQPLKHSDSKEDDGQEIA
Briefly: flow cytometry on NIH-3T3 cells transfected with the B7-H3 IgV1 expression vector; fluorescein anti-mouse IgG secondary; FL1 Log histogram. The protocol:
(§1) The binding specificity, for B7-H3, of the antibody produced by the hybridoma which immunoprecipitated the B7-H3 variant 1 identified by MS was confirmed by a flow cytometric method. The cell suspension prepared in Example 3)-2 was centrifuged, and the supernatant was removed. Then, the hybridoma culture supernatant was added to the NIH-3T3 cells transfected with each vector to suspend the cells, and the cells were left to stand at 4° C. for 1 hour.
(§2) It was examined as to which domain of B7-H3 the M30 binds by a flow cytometric method in the same manner as in Example 3)-3. The NIH-3T3 cells transfected with each of the expression vectors for B7-H3 partial proteins prepared in Example 1)-1-3 were used.

Assay [8] has as its target T7, B7-H3 IgV2 (B7-H3 partial protein, on transfected NIH-3T3 cells) (human, UniProt Q5ZPR3 245-534).
T7 construct: expressed on cells from pFLAG-myc-CMV-19-DEST; leader or tag from the vector not described
T7 sequence: T6 sequence with L3V, C23R, A54T, Q57R
In words: flow cytometry on NIH-3T3 cells transfected with the B7-H3 IgV2 expression vector; fluorescein anti-mouse IgG secondary; FL1 Log histogram. The protocol:
as §1, §2

In assay [9] the target is T5, extracellular domain polypeptide of a …. In words: competition ELISA on plate-coated B7-H3 variant 2 extracellular domain polypeptide; competitor biotinylated M30 (bM30, 5 ug/ml), detected with streptavidin-HRP, OD 450 nm. The protocol: Each of the extracellular domain polypeptide of the B7-H3 variant 1 (manufactured by R&D Systems, Inc., #1949-B3-050/CF) and the extracellular domain polypeptide of the B7-H3 variant (manufactured by R&D Systems, Inc., #2318-B3-050/CF) was diluted to 0.5 μg/ml with a coating buffer and the resulting solution was dispensed at 100 μL/well in an immunoplate (manufactured by Nunc, Inc., #442404). Then, the plate was left to stand overnight at 4° C., whereby the protein was adsorbed to the plate. On the next day, an assay diluent was dispensed at 200 μL/well, and the plate was left to stand at room temperature for 4 hours.

Residue numbers refer to the chain shown, from its start.

B1: M30 antibody (mouse anti-human B7-H3 monoclonal antibody produced by B7-H3 hybridoma M30) (antibody, mouse IgG2a, kappa)
heavy: EVQLQQSGPELVKPGASVKMSCKASGYTFTNYVMHWVKQKPGQGLEWIGYINPYNDDVKYNEKFKGKATQTSDKSSSTAYMELSSLTSEDSAVYYCARWGYYGSPLYYFDYWGQGTTLTVSSAKTTAPSVYPLAPVCGDTTGSSVTLGCLVKGYFPEPVTLTWNSGSLSSGVHTFPAVLQSDLYTLSSSVTVTSSTWPSQSITCNVAHPASSTKVDKKIEPRGPTIKPCPPCKCPAPNLLGGPSVFIFPPKIKDVLMISLSPIVTCVVVDVSEDDPDVQISWFVNNVEVHTAQTQTHREDYNSTLRVVSALPIQHQDWMSGKEFKCKVNNKDLPAPIERTISKPKGSVRAPQVYVLPPPEEEMTKKQVTLTCMVTDFMPEDIYVEWTNNGKTELNYKNTEPVLDSDGSYFMYSKLRVEKKNWVERNSYSCSVVHEGLHNHHTTKSFSRTPGK
light: QIVLSQSPTILSASPGEKVTMTCRASSRLIYMHWYQQKPGSSPKPWIYATSNLASGVPARFSGSGSGTSYSLTISRVEAEDAATYYCQQWNSNPPTFGTGTKLELKRADAAPTVSIFPPSSEQLTSGGASVVCFLNNFYPKDINVKWKIDGSERQNGVLNSWTDQDSKDSTYSMSSTLTLTKDEYERHNSYTCEATHKTSTSPIVKSFNRNEC
notes: Mouse IgG2a, kappa; Used as hybridoma culture supernatant in the flow cytometry and as purified antibody in SPR and ELISA; also called mouse antibody M30
B1: the binding result in [1], in assay [2], in [3], in assay [4], in [5] and in assay [7] was “no binding” in each case. Further, the binding result in assay [8] is given as “no binding”. Moreover, in [6], the Kd came out at 5.89 nM. The “IC50 (read off the curve)” value in assay [9] is about 0.5 µg/mL.

The values above are taken from patent publication US20130078234A1 (Daiichi Sankyo, published 2013).
